The nanobody polyreactivity screen of Harvey et al. (2022)

Test: yeast display, Sf9 membrane polyspecificity reagent, FACS + sequencing; frameworks hold sequencing errors
Outline: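 Using colony PCR, genes from sorted yeast display clones were amplified, then sequenced on MiSeq at 2 × 250 and filtered by CDR length. The clones had been stained with 10% biotinylated, detergent-solubilized Sf9 membrane reagent for 1 hour at 4 °C and sorted by FACS into low and high (top ~1%) gates on anti-HA and streptavidin fluorescence. Polyreactivity labels come from the gate of origin.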

| Sequence | polyreactivity (PSR sort gate) |
| --- | --- |
| QVQLVESGGGLGQAGGSLRLSCAASGSTFYRFTRGWYRQAPGKERELVASIRWTGGRTNYADSVKGRFTISRDNAKNTVYLQMNSLKPEDTAVYYCAAYLKYPYGASYGSWGQGTQVTVSS | high polyreactivity |
| QVQLVESGGGLGQAGGSLRLSFAASGRTFWYNAMGWYRQAPGKERELVAAISNGGSTNYADSVKGRFTISRDYATNTVYLQMNSVKPEDTAVDYCNAGLYRSPYPGRLGSRYDYWGQGTQVTVSS | high polyreactivity |
| QVQLVESGGGLGQAGGSLRLSSAASGGTFGSNTMGWYRQAPGKERELVAAITSGVSTYYADSVKGRFTISRDNAKNTVYLQMNSLKPEDTAVYYCAADTTQLQGVEGDYWGQGTQVTVSS | low polyreactivity |
| QVQLVESGGGLIQAGGSLRLRCAASGSTFPYYAMGWYRQAPGKEREFVAAIRFSGSSTYYADSVKGRFTISRDNAKNTVFLQMNRLIPEDTAVYYCATDYWLPSYSYDYWGQGTQVTVSS | low polyreactivity |
| QVQLVESGGGLLHAGGSLRLSCAASGRTFDHYAMGWYRQAPGKERELVAAISSRGSSTYYADSVKGRFTISRDNAKNTVYLQMNSLKPEDTAVYYCAAKYIRDYTSNPRGYWGHGTQVTVSS | high polyreactivity |
| QVQLVESGGGLLHAGGSLRLSFAASGRIFYYNGMGWYRQAPGKERELVAAISRGGSTYYADSVKGRFTISRDNAKNTVYLQMNRLLPEDTAVYDCAAYRGGLVNYWGQGSQVTVSS | high polyreactivity |
| QVQLVESGGGLLQAGGSLRISCAASGRIFGRYAMGWYRQAPGKERELVASISRGGSTNYADSVKGRFTISRDNAKNTVYLQMNSLKPEDTAVYYCAADLNAYPQRAYDYWGQGTQVTVSS | low polyreactivity |
| QVQLVESGGGLLQAGGSLRLSCAASGFIFKYYAMGWYRQAPGKEREFVAGINWSGTSTYYADSVKGRFTISRDNAKNTVYLQMNSLKPEDTAVYYCAATAYRGRTSRYYYWGQGTQVTVSS | high polyreactivity |
| QVQLVESGGGLLQAGGSLRLSCAASGFTFATYAMGWYRQAPGKERELVAAISTSGGSTYYADSVKGRFTISRDNAKNTVYLQMNSLKPEDTAVYYCNAVSRSYRYAGVPGFHYDYWGQGTQVTVSS | high polyreactivity |
| QVQLVESGGGLLQAGGSLRLSCAASGFTFGFYGRGWYRQAPGKERELVAAISYSGGTTYYADSVKARFTIARDNAKNTVYLQMNCLKPQDTAVNYCNTQSRETEDADYWGQGTQVTVSS | high polyreactivity |
| QVQLVESGGGLLQAGGSLRLSCAASGFTFRSYDMGWYRQAPGKERELVAAISWRGGRTYYADSVKGRFTISRDNAKNTVDLQMNSLKPEDTAVYYCATDWYWGSYAPYTTRAHFDYWGQGTQVTVSS | high polyreactivity |
| QVQLVESGGGLLQAGGSLRLSCAASGFTFTTYAMGWYRQAPGKERELVAAITRRGGSTYYADSVKGRFTISRDNAKNTVYFQMNSLKPEDTAVYYCAAGGGWGLDYWGQGTQVTVSW | high polyreactivity |
| QVQLVESGGGLLQAGGSLRLSCAASGLTFVDYAMGWYRQAPGKERELVAAITTSGGSITYYSDSVKGRFTISRDNAKNTVYLQMNSLKPEDTAVYSCNADYGIYTDSFRGPDYESWGQGTQVTVSS | low polyreactivity |
| QVQLVESGGGLLQAGGSLRLSCAASGMGWYRQAPGKERELVAAISWNGGSTYYADSVKGRFTISRDNAKNTVYLQMNSLKPEDTAVYYCAADYSTVASSLYLDSWGQGTQVTVSS | low polyreactivity |
| QVQLVESGGGLLQAGGSLRLSCAASGRIFRGYAMGWYRQAPGKESELVAGITSGGSTKYADSVKGRFTISRDNAKNTVYLQMNSLKPEDTAVYYCAKGYLPYSYYARPYIRYYWGQGTQVTVSS | high polyreactivity |
| QVQLVESGGGLLQAGGSLRLSCAASGRIGRYAMGCYRQAPGKERQLVAVITSGDSTYYADSVKGRFTISRDNAKNTVYLQMNSLKPEESPVESCAADSYRRWGNLFTGNEYDSWGQGTQVTVSS | low polyreactivity |
| QVQLVESGGGLLQAGGSLRLSCAASGRILGPNAMGWYRQAPGTERELVAAINSGGSTNYADSVKGRFTISRDNAKNTVYLQMNSLKPEDTAVYYCATDKARVAGYGVEYDYWGQGTQVTVSS | low polyreactivity |
| QVQLVESGGGLLQAGGSLRLSCAASGRNFKYYAMGWYRQAPGKEREFVAAISRSGGRTYYADSVKGRFTISRDNAKNTVYLQMNSLKPEDTAVYYCAAQPSSYVYYRQPFHYWGQGTQVTVSS | high polyreactivity |
| QVQLVESGGGLLQAGGSLRLSCAASGRTFNYYAMGWYRQAPGKERELVAAISRSGGSTYYADSVKGRFTISRDNAKNTVFLQMNSLKPEDTAVYYCKSDRGSIYGWGQGTQVTVSS | high polyreactivity |
| QVQLVESGGGLLQAGGSLRLSCAASGRTFPYYAMGWYRQAPGKERELVAAISSSGGSTYYADSVKGRFTISRDNAKNTVYLEMNSLKPEDTEVYYCAAVYQFIKWGDSYEYWGQGTQVTVSS | high polyreactivity |
| QVQLVESGGGLLQAGGSLRLSCAASGRTFVWNAKGWYRQAPGKERELVAPITNDGSTNYADSVKGRFTISRDNAKNTVYLQMNSLKPEDTAVYYCAKRPRGSRIVPGGYDSWGQGTQVTVSS | low polyreactivity |
| QVQLVESGGGLLQAGGSLRLSCAASGRTFVYYAMGWYRPAPGKERELVAAITSSGSRTYYADSVKGRFTISRDNAKNTVYLQMNSLKPEDTAVYYCAADYVAHGDYRVLYDYWGQGTQVTVSS | low polyreactivity |

| Sequence | polyreactivity (PSR sort gate) |
| --- | --- |
| QVQLVESGGGLLQAGGSLRLSCAASGSIFGVNAMGWYIQAPGKERELVASITGGDSTNYADSVKGRFTISRDNAKNTVYLQINSLKTEDTAVYYCNARVADAWASGYDYWGQGTQVTVSS | low polyreactivity |
| QVQLVESGGGLLQAGGSLRLSCAASGSIFRRNAMGWYRQAPGKERELVAAITTRGSRTTYADSVKGRFTISRDNAKNTVYLQMNSLKPEDTAVYYCAARQHFSYSFHVAYDYWGQGTQVTVSS | high polyreactivity |
| QVQLVESGGGLLQAGGSLRLSCAASGSIFRYYAKGWYRQAPGKERELVAAISYSGGRTYYADSVKGRFTISRDNAKNTVYLQMNSLKPEDTAVYYCNAGAGKRGYDYWGQGTQVTVSS | low polyreactivity |
| QVQLVESGGGLLQAGGSLRLSCAASGSIFSRYVMGWYRQAPGKERELVAGISGSGGSTYYADSVKGRFTISRDNAKNTVYLQMNSLKPEDTAVYYCNAATSRLYYNHYTRYNYWGQGTQVTVSS | high polyreactivity |
| QVQLVESGGGLLQAGGSLRLSCAASGSIFTAYAMGWYRQAPGKESELVAAIDDSGDSTYYADSVKGRFTISRDNAKHTVYLQMNSLKTEDTAVYYCKAEYRVNKEYDDWGQGTQVTVSS | low polyreactivity |
| QVQLVESGGGLLQAGGSLRLSCAASGSNFDRYGRGWYRQAPGTERELVADITSDGSTNYADSVKGRFTISRDNAKNTVYLQMNSLKPEDTAVYYCAVSYTAYSVGYDYWGQGTQVTVSS | low polyreactivity |
| QVQLVESGGGLLQAGGSLRLSCAASGSTFHRNAMGWYRQAPGKERELVAAISWRAGSTYYADSVKGRFTISRDNAKNTVYLQMNSLKPEDTAVYYCNAVERYWDYGYWGQGTQVTVSS | low polyreactivity |
| QVQLVESGGGLLQAGGSLRLSCAASGSTFKFNAMGWYRQAPRKERELVAAISNRGGTTYYADSVKGRFTISRDNAKNTVYFHMNSLKPEDTAVYYCAAGRVQSYYYWGQGTQVTVSS | high polyreactivity |
| QVQLVESGGGLLQAGGSLRLSCAASGSTFRGNALGWYRQAPGKVRELVAAINSSGGRTYYADSVKGRFTISRDNAKNTVYLQMNSLKPEDTAVNYCAARGRRTGDYDYWGQGTQVTVSS | high polyreactivity |
| QVQLVESGGGLLQAGGSLRLSCAASGSTFTAYAMGWYRQAPGKERELVADISDSGGSTYYADSEKGRFTISRDNAKNTVYLQINSLKPEDTAVYYCAVHVRAFVVSKFDSRGQGTQVTVSS | low polyreactivity |
| QVQLVESGGGLLQAGGSLRLSCAASGSTFWFYAMGWYRQAPGKERELVDVISNSGSTYYADSEKGRFTISRDNAKNTVYLQMNSLKPEDTAVYNCAADGFYYPNWGRFSYYYWGQGTLVTVSS | low polyreactivity |
| QVQLVESGGGLLQAGGSLRLSCAASGYTFWLYAMGWYRQAPGKDRELVATISRRAGTTYYADSVKGRFTISRDNAKNTVYLQMNSLKPEDTAVYYCAKKSHSLLGQYGEDYDYWGQGTQVTVSS | low polyreactivity |
| QVQLVESGGGLLQAGGSLRLSCAASVRFLCYGWYRQAPGKERELVAAITWSGGSTYYADSVKGRFTISRDNAKNTVYLLMNSLKPEDTAVYYCARYPDSYWYGRKNYYWGQGTQVTVSS | high polyreactivity |
| QVQLVESGGGLLQAGGSLRLSCADSGRTFCPNVMGCYRQAPGKERELVAAITWGDASTYYADSVKGRFTISRDNAKNTVYLQMNCLKPEDTAVYYCGAKSSTRGDYWGQGTQVTVSS | low polyreactivity |
| QVQLVESGGGLLQAGGSLRLSCSASGRIFPSYAMGWYRQAPGKERELVAAISSSGGRTYYADSVKGRFTISRDNAKNTVYLQLNSLKPEDTAVYYCAARWVQYGVRYDFWGQGTQVTVSS | high polyreactivity |
| QVQLVESGGGLLQAGGSLRVSCAASGFIFVLYAMGWYRQAPGKERELVAAITWSTGCTYYADSVKGRFTISRDNAKNTVYLHMNSLKPEDTAVYYCSADQYIFGIWFDYWGQGTQVTVSS | high polyreactivity |
| QVQLVESGGGLLQAGGSLSLSCAASGRTFVPYTMGWYRPAPGKERELVAAISWSDGTTYYADSVKGRFTISRDNAKNTVYLQMNSLKPEDTAVYYCNDDVYLFNYFGGWYYAGYDYWGQGTQVTVSS | high polyreactivity |
| QVQLVESGGGLLQEGGSLRLSCAASGRTFYYYTMGWYRQAPGIERELVAAITHGGSTYYADSVKGRFTISRDNAKNTVYLQMNSLTPEDTAVYYCNAVYHYPYEYWGHGTQVTVSS | high polyreactivity |
| QVQLVESGGGLVEAGGSLRLSCAASGFIFGGYDMGWYRPAPGKQRELVAAITRSGGSTYYADSVKGRFTISRDNAKNTVYLEMNSLKPEDTAVYYCAAERQPYRTSSYNYWGQGTQVTVSS | high polyreactivity |
| QVQLVESGGGLVEAGGSLRLSCAASGFNIPIYAMGWYRPAPGKERELVASITRSGGSTYYADSVKGRFTISRDNAMNTVYLQMNSLKPEDTAVYFCAASVKIISYLVHSELLGGELDYWGQGTQVTVSS | low polyreactivity |
| QVQLVESGGGLVEAGGSLRLSCAASGIIFVSYDMGWYRQAPGKERELVAAINRGGRTYYADSVKGRFTISRDNAKNTVYLQMISLKPEDTAVYYCAAQFHFRPFSWTYDYWGQGTQVSVSS | high polyreactivity |
